This note sets out measurements from publication PMC5809530, “Resculpting the binding pocket of APC superfamily LeuT-fold amino acid transporters” (Cellular and Molecular Life Sciences: CMLS, 2017).

Substrate in data set [1]: N[C@@H](CO)C(=O)O
Nature of the data set: cells, lysate or membranes. The conditions noted are these: transport Km, Na+-free, pH 5.5, about 22 °C, labelled compound, 0.01-20 mM serine.

Substrate in data set [2]: O=C(O)[C@@H]1CCCN1
The data set can be described thus: cells, lysate or membranes. The note with it: transport Km, Na+-free, pH 5.5, about 22 °C, labelled compound, a second Km was measured by TEVC at -60 mV.

B1: PAT2 (SLC36A2) (Rattus norvegicus; F159I) (protein)
chain: MSVTKSAGSPQVAATVKLDLVSFPESAKKVQSQDPNPVNGSSSESSEKTKGITGFQTLVHLVKGNMGTGILGLPLAVKNAGILMGPLSLLVMGLIACHCMHILVRCAQRFCHRLNKPFMDYGDTVMHGLASSPNTWLQSHAHWGRHAVSFFLIVTQLGICCVYIVFLADNLKQVVEAVNSTTISCHKNETVVLTPTIDSRLYMLAFLPVLGLLVFIRNLRVLTIFSLLANVSMLVSLVIIGQYIIQGIPDPSQLPLVASWKTYPLFFGTAIFSFESIGVVLPLENKMKDARRFPTILSLGMSIITTLYIAIGALGYLRFGDDIKASITLNLPNCWLYQSVKLLYVVGILCTHALQFYVPAEIIIPLAVSQVSKRWALPVDLSIRLALVCVTCMLAILIPRLDLVLSLVGSVSSSALALIIPPLLEVTTYYGEGMSPLTITKDALISILGFMGFVVGTYQALDELIRSGNSLPLSNSTMFIQ
Turning to B1, the Km (usually the concentration of substrate that gives half-maximal velocity) in data set [1] was 823 ± 202 µM.

B2: CG1139 (Drosophila melanogaster) (protein)
chain: MNDDIKTVTVYPTTLELTTPTKSANGSNDDYDPHQHRELKNPTTNFQTFAHFLKASVGTGVLAMPSAFAHAGYVNGTLLTLIIGSLALYCLHILIKCMYILCKRQRVPYVSFSQAMNLGLKQGPPWLRCLAPIAVPFVDGFLAFYHFGICCVYVVFIAESIKQLVDEYLVVWDVRIHMCIIIVPLLLIYSIKNLKLLAPFSSAANLLLLVGFGIILYYIFEELPPLSERDPFVAAGKLPTFFGTVLFALEAVGVILAIEENMATPKSFVGPCGILNSGMSIVLGLYVLLGFFGYWKYGNESEGSITLNIPQSEIPAQVVKVFFAITTWISYALQGYVTAHILWDKYLAKRFKETRQTFYELIFRAIIVLLTFGCAVAIPDLSVFLSLVGSFCLSILGLIFPVLLQICVQYTEGYGPFRIKLIINLLLLCFGIFGGVVGTYVSILDIIAVYK
As for B2, the figures for the Km in data set [2] and in data set [1] were 1030 ± 180 µM and 1310 ± 120 µM, respectively.
